B1: Spastin (Homo sapiens), Q9UBP0-1 (parent)
chain: MNSPGGRGKKKGSGGASNPVPPRPPPPCLAPAPPAAGPAPPPESPHKRNLYYFSYPLFVGFALLRLVAFHLGLLFVWLCQRFSRALMAAKRSSGAAPAPASASAPAPVPGGEAERVRVFHKQAFEYISIALRIDEDEKAGQKEQAVEWYKKGIEELEKGIAVIVTGQGEQCERARRLQAKMMTNLVMAKDRLQLLEKMQPVLPFSKSQTDVYNDSTNLACRNGHLQSESGAVPKRKDPLTHTSNSLPRSKTVMKTGSAGLSGHHRAPSYSGLSMVSGVKQGSGPAPTTHKGTPKTNRTNKPSTPTTATRKKKDLKNFRNVDSNLANLIMNEIVDNGTAVKFDDIAGQDLAKQALQEIVILPSLRPELFTGLRAPARGLLLFGPPGNGKTMLAKAVAAESNATFFNISAASLTSKYVGEGEKLVRALFAVARELQPSIIFIDEVDSLLCERREGEHDASRRLKTEFLIEFDGVQSAGDDRVLVMGATNRPQELDEAVLRRFIKRVYVSLPNEETRLLLLKNLLCKQGSPLTQKELAQLARMTDGYSGSDLTALAKDAALGPIRELKPEQVKNMSASEMRNIRLSDFTESLKKIKRSVSPQTLEAYIRWNKDFGDTTV

Variants of: B1
Conditions: with fxl17_human FBXL17, Q9UF56
fxl17_human FBXL17, Q9UF56, sequence (Q9UF56 whole entry): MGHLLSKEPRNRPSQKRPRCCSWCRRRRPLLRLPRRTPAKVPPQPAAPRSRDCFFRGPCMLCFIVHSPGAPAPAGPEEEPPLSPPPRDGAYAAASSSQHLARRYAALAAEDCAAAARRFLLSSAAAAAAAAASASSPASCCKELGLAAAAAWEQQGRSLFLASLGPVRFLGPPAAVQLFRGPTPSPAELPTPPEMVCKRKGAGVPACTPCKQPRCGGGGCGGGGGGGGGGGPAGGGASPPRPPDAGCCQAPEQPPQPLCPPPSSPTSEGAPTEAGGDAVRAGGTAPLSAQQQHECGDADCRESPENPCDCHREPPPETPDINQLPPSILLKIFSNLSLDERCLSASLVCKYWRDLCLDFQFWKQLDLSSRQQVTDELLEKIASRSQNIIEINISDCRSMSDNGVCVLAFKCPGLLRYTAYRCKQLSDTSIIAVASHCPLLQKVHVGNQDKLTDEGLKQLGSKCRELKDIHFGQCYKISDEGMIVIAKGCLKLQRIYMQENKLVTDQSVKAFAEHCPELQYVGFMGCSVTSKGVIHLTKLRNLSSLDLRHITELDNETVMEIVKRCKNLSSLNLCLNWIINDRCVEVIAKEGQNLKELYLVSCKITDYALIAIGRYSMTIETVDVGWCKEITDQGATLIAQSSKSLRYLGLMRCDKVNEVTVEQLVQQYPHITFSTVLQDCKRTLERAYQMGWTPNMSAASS

effect of a mutation on the interaction	Variant
disrupting interaction strength	Y52C

From IntAct's records for PubMed 35869491
